The target in assay [1] is T1, human SIRP-α v1 (human, UniProt P78324 31-149).
T1 construct: also called Human v1; Human V1
Kind of assay: SPR. The essentials: (§1)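 KD values were derived as kd/ka from apparent rate constants obtained by globally fitting double-referenced data to a simple Langmuir model. The data came from a ProteOn XPR36 biosensor run at 25° C in PBS pH 7.4 with 0.01% Tween-20. There, purified antibodies sat on a GLC chip by amine coupling or on an NLC chip by biotinylated Protein A capture, and SIRP analytes were injected in one-shot kinetic mode at nominal concentrations set from A280 absorbance.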
For orientation: Surface plasmon resonance follows binding to a sensor surface in real time, without labels.

The target in assay [2] is T2, human SIRP-α v2 (human).
T2 construct: also called Human v2; Human V2
T2 sequence (chain, as listed by the source limits assumed): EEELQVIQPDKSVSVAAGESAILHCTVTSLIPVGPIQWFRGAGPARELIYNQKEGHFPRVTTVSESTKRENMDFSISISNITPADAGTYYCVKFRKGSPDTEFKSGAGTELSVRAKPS
Kind of assay: SPR KD. A digest of the protocol: as §1

Assay [3] has as its target T3, cynomolgus SIRP-α (cynomolgus monkey, UniProt Q5TFQ8 30-148 (human entry), limits assumed).
T3 construct: also called cyno1
T3 chain: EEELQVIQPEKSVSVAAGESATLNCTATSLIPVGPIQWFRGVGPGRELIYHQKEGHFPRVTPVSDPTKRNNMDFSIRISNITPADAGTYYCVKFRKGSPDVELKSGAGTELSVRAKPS
Kind of assay: SPR Koff +/-. A digest of the protocol: as §1

Assay [4] deals with T4, mouse 129 SIRP-α (mouse (129 strain), UniProt P97797 32-150).
T4 construct: also called m129
T4 chain: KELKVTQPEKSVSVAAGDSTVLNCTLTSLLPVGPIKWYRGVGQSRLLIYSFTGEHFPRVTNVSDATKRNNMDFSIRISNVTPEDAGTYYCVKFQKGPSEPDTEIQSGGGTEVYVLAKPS
Kind of assay: SPR Koff +/-. A digest of the protocol: as §1

Assay [5] concerns the target T5, human SIRPβ isoform 1 (human, UniProt O00241 30-148).
T5 construct: also called Beta; Human SIRPb
Kind of assay: SPR Koff +/-. A digest of the protocol: as §1

Assay [6] deals with T6, human SIRPγ isoform 1 (human, UniProt Q9P1W8 29-147).
T6 construct: also called Gamma; Human SIRPg
Kind of assay: SPR Koff +/-. A digest of the protocol:
as §1

For assay [7], the target named is T7, cynomolgus SIRP-α D1 domain (SEQ ID NO:11) (cynomolgus, UniProt Q5TFQ8 30-148 (human entry), limits assumed).
T7 construct: also called cyno1
T7 chain: T3 chain
Kind of assay: SPR, Langmuir fit.

Assay [8] concerns the target T8, cynomolgus SIRP-α D1 domain (SEQ ID NO:12) (cynomolgus, UniProt Q5TFQ8 30-148 (human entry), limits assumed).
T8 construct: also called cyno2; Cyno2
T8 chain: T3 chain with E19D, A27V, T28S, V42A, H51N, Q52L, P62A
Kind of assay: SPR, Langmuir fit.

Assay [9] has as its target T9, NOD mouse SIRP-α D1 domain (mouse (NOD strain)).
T9 chain: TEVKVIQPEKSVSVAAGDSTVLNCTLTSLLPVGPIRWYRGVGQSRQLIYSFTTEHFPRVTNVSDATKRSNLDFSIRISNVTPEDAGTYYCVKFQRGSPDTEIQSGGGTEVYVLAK
Kind of assay: SPR, Langmuir fit.

For assay [10], the target named is T10, C57BL/6 mouse SIRP-α D1 domain (mouse (C57BL/6 strain), UniProt P97797 32-148).
T10 sequence: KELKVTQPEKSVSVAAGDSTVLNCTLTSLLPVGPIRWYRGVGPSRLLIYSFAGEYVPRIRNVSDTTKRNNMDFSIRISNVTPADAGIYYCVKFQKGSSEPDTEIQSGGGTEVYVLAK
Kind of assay: SPR, Langmuir fit.

The target of assay [11] is T11, BALB/c mouse SIRP-α D1 domain (mouse (BALB/c strain)).
T11 chain: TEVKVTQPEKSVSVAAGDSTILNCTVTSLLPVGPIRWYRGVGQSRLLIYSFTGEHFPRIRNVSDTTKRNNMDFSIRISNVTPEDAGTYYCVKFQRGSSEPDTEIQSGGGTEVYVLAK
Kind of assay: SPR, Langmuir fit.

Assay [12] deals with T1, human SIRP-α v1. Kind of assay: SPR. A digest of the protocol:
as §1
The source holds these as a separate data set.

In assay [13] the target is T2, human SIRP-α v2. Kind of assay: SPR. The essentials: as §1
Assay [14] addresses T3, cynomolgus SIRP-α. Kind of assay: SPR. The essentials: as §1
For assay [15], the target named is T12, NOD mouse SIRP-α (mouse (NOD strain)).
T12 chain: T9 chain
Kind of assay: SPR. A digest of the protocol:
as §1

Assay [16] deals with T13, BL6 mouse SIRP-α (mouse (C57BL/6 strain), UniProt P97797 32-148).
T13 construct: also called C57BL/6
T13 sequence: T10 sequence
Kind of assay: SPR. The essentials:
as §1

Assay [17] deals with T14, BALBc mouse SIRP-α (mouse (BALB/c strain)).
T14 chain: T11 chain
Kind of assay: SPR. The essentials: as §1

In assay [18] the target is T5, human SIRPβ isoform 1. Kind of assay: SPR. A digest of the protocol:
as §1

Assay [19] deals with T6, human SIRPγ isoform 1. Kind of assay: SPR. The essentials: as §1
Assay [20] concerns the target T15, human SIRP-α v1 D1 domain (human, UniProt P78324 31-149).
T15 construct: also called human v1; human α v1
Kind of assay: SPR, ProteOn, antibody on chip. How it is done:
(§2) All experiments were performed at 25° C. using a SPR-based ProteOn XPR36 biosensor (BioRad, Inc, Hercules, Calif.) equipped with GLC or NLC sensor chips. […] Purification was carried out by standard Protein A affinity column chromatography and eluted antibodies were stored in PBS buffer.
(§3) The running buffer was PBS pH 7.4 with 0.01% Tween-20 (PBST+). All analytes were used at their nominal concentrations as determined by A280 Absorbance and using their molar calculated extinction coefficient.
(§4) For the method using GLC chip, the analytes were injected and flowed over anti-SIRPα antibodies immobilized (˜1000 RUs) on GLC chips using Proteon™ Amine Coupling Kit. For the immobilization step, GLC chip was activated with EDAC/Sulpho-NHS 1:1 (Biorad) diluted 1/100 for 300 s at 25 μL/min. Anti-SIRPα antibodies were diluted to 80 nM concentration in 10 mM sodium acetate buffer pH 4.5 and immobilized to the chip at 30 μL/min for 50 s. Chip was inactivated with ethanolamine for 300 s at 25 μL/min. The analytes (e.g., SIRP-α from different species, SIRP-β, SIRP-γ) were injected in a “one-shot” kinetic mode at nominal concentrations of 100, 33, 11, 3.7, 1.2 and 0 nM. Association times were monitored for 90 s at 100 μL/min, and dissociation times were monitored for 1200 s. The surfaces were regenerated with a 2:1 v/v blend of Pierce IgG elution buffer/4M NaCl.

Assay [21] addresses T16, human SIRPβ isoform 2 (human, UniProt Q5TFQ8 30-148).
T16 construct: also called Sirpb2; beta isoform 2
Kind of assay: SPR, ProteOn, antibody on chip. Here is the method: as §2, §3, §4

Assay [22] has as its target T17, human SIRPγ isoform 1 (human, UniProt Q9P1W8 29-147).
T17 construct: also called sirpg; sirp-g
Kind of assay: SPR, ProteOn, antibody on chip. Here is the method:
as §2, §3, §4

For assay [23], the target named is T18, human SIRP-α v2 D1 domain (human).
T18 construct: also called human v2; human α v2
T18 sequence (chain, as listed by the source limits assumed): as the sequence (chain, as listed by the source limits assumed) above
Kind of assay: SPR, ProteOn, antibody on chip. How it is done: as §2, §3, §4

Assay [24] addresses T7, cynomolgus SIRP-α D1 domain (SEQ ID …). Kind of assay: SPR, ProteOn, antibody on chip. How it is done:
as §2, §3, §4

The target in assay [25] is T19, human SIRPβ isoform 1 (human, UniProt O00241 30-148).
T19 construct: also called sirpb1; Sirpb1
Kind of assay: SPR, ProteOn, antibody on chip. How it is done:
as §2, §3, §4

The target of assay [26] is T15, human SIRP-α v1 D1 domain. Kind of assay: SPR, antibody immobilised on GLC chip. How it is done: as §2, §4
Assay [27] concerns the target T18, human SIRP-α v2 D1 domain. Kind of assay: SPR, antibody immobilised on GLC chip. Here is the method:
as §2, §4

Assay [28] concerns the target T7, cynomolgus SIRP-α D1 domain (SEQ ID …). Kind of assay: SPR, antibody immobilised on GLC chip. How it is done:
as §2, §4

Where a chain is given by its changes, count along the chain named. Names and notes keep the numbering of the source. Read-outs that look alike come from different tables or passages of the source. Where only a bound is given, the exact number is not on record here.

T1 sequence (P78324 31-149 limits assumed): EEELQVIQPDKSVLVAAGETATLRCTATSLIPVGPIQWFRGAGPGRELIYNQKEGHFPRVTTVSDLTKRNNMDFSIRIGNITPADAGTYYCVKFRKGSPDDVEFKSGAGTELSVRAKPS
T16 sequence (Q5TFQ8 30-148 limits assumed): as the sequence (P78324 31-149 limits assumed) above, with V13I, L14S, T20S, R24H, A27V, G79S, D101H counted along it

B1: antibody 123 (antibody, V domains shown)
VH: VQLVESGGGLVQPGGSLRLSCTASGFTFRNYGMSWVRQAPGEGLEWVSASSGSGSTYYTDSVKGRFTISRDNSKNTLYLQMNSLRAEDTAIYYCAKVTWNNFFDYWGLGTLVTVSS
VL: EIVLTQSPGTLSVSPGERVTLTCRASQGIAGKIAWYQQKPGQAPRLLIYDASSRATGIPGRFSGSGSGTEFTLTITSLQSEDFAVYYCQQHYDWSPLTFGGGTKVEIK
notes: also called S123
Take B1: the equilibrium dissociation constant (Kd) in assay [1] amounted to 0.605 nM. For the same molecule, the binding result in assay [2] is reported as “no binding”; in assay [3], “binds”; in [4], “no binding”; in [5], “no binding”; in [6] it was “binds”.

B2: AB45 (as in Table J1) (antibody, V domains shown)
VH: AVTLDESGGGLQTPGGALSLVCKASGFTFSSYAMGWVRQAPGKGLEWVAGIDDDGSTANYGPAVKGRATISRDNGQSTVRLQLNNPRAEDSGTYFCAKASVTGWSAHISGRLDTWGHGTEVIVSS
VL: ALTQPASVSANPGETVKITCSGGGIYYYGWYQQKSPGSAPVTLIYENDKRPSDIPSRFSGSTSGSTNTFTITGVQAEDEAVYYCGGYDSNTTSGIFGAGTTLTVL
notes: also called antibody 45
Consider B2, for which the binding result in assay [7], in [8], in assay [9], in [10] and in assay [11] was “no binding” in each case.

B3: Hum1/AB21_HC_Mutall (antibody, V domains shown)
VH: EVQLVESGGGVVQPGGSLRLSCAASGFTFSSNAMSWVRQAPGKGLEWVAGISAGGSDTYYPASVKGRFTISRDNSKNTLYLQMNSLRAEDTAVYYCARETWNHLFDYWGQGTLVTVSS
VL: SYELTQPPSVSVSPGQTARITCSGGSYSSYYYAWYQQKPGQAPVTLIYSDDKRPSNIPERFSGSSSGTTVTLTISGVQAEDEADYYCGGYDQSSYTNPFGGGTKLTVL
notes: also called Hum1/AB21mutall
With B3, the Kd in assay [12] was determined as 0.00532 nM; in assay [13], 0.0046 nM; in assay [14] it was 0.0291 nM; in assay [15], 3.7 nM; in assay [16] it was 9.5 nM; in [17], 7.91 nM. Further, the results for the equilibrium dissociation constant (Kd) in assay [18] and in assay [19] were 0.0067 nM and less than 0.001 nM, respectively.

B4: Hum9/AB21_HC_Mutall (antibody, V domains shown)
VH: B3 VH
VL: B3 VL with S26A, T45L, L46V, N56G
notes: also called Hum9/AB21mutall
Regarding B4, the Kd in assay [12] turned out to be 0.0119 nM; in assay [13], 0.119 nM; in [14] it was 0.222 nM; in [15] it was 24.1 nM; in [17] it was 136 nM; in assay [18], 0.0569 nM. Besides, the affinity in assay [19], expressed as Kd, was 0.0345 nM.

B5: AB119a (antibody, human IgG1, V domains shown)
VH: DVQLLESGGGVVQPGGSLRLSCAASGFSFSNFAMTWVRQAPGEGLEWVSTIGSGDTYYADSVKGRFTISRDNSKNTLYLQMNSLRAEDTAVYYCAKDSTVSWSGDFFDYWGLGTLVTVSS
VL: EIVLTQSPATLSVSPGERATFSCRASQNVKNDLAWYQQRPGQAPRLLIYAARIRETGIPERFSGSGSGTEFTLTITSLQSEDFAVYYCQQYYDWPPFTFGGGTKVEIK
notes: Full-length human IgG1 with L234A, L235A, G237A and N297A; only variable domains tied to the clone
On to B5, for which the Kd in [20] amounted to 0.198 nM; in assay [21], 0.376 nM; in assay [22], 0.886 nM; in assay [23], 0.0799 nM; in assay [24], 0.145 nM; in assay [25], 0.342 nM. For the same molecule, the dissociation constant Kd in [26] stood at 0.183 nM; in [27], 0.0682 nM; in [28] it was 0.112 nM.

B6: AB132a (antibody, human IgG1, V domains shown)
VH: DVQLVESGGGVVRPGESLRLSCAASGFSFRSYAMNWVRQAPGEGLEWVSRINSGGGGTDYADSVKGRFTISRDNSKNTLYLQMNSLRAEDTAVYYCAKQYDWNSFFDYWGLGALVTVSS
VL: ETVLTQSPATLSVSPGERATLSCRASQTVGSKLAWHQQKPGQAPRLLIYDASNRATGIPDRFSGSGSGTDFTLTISSPQTEDSAVYYCQQYYYWPPYRFGGGTKVEIK
notes: as for B5
For the molecule B6, the Kd came to 0.426 nM in assay [20]; 0.164 nM in assay [21]; 0.519 nM in assay [22]; 1.86 nM in assay [23]; 2.41 nM in assay [24]; 0.131 nM in assay [25].

B7: antibody 194 (antibody, V domains shown)
VH: DVQLVESGGGVVRPGESLRLSCAASGFTFRNYGMSWVRQAPGEGLEWVSASSGSGSTYYADSVKGRFTISRDNSKNTLYLQMNSLRAEDTAIYYCAKVTWNNFFDYWGLGTLVTVSS
VL: EIVLAQSPDTLSVSPGERATLTCRASQDVAGKLAWYQQKPGQAPRLLIHATSSRADGIPARFSGSGSGTEFTLTITGLQSEDFAVYYCQQHYDWSPLTFGGGTKVEIK
notes: also called S194
As for B7, the dissociation constant Kd in assay [1] worked out at 0.497 nM. For the same molecule, the binding result in assay [2] and in assay [5] was “no binding” in each case.

One may read the Kd as the free concentration of one partner at which half of the binding sites on the other are occupied at equilibrium, for simple one-to-one binding. Low readings indicate tighter binding, high ones weaker binding.

(Values after patent publication US20210363269A1 (ALX ONCOLOGY, published 2021).)
